Stoichiometry N data for one substance are collected here from paper PMC6978647.

Where two headings read alike, the source gives them in different places.

For orientation: stoichiometry N means a count of units in the complex or per binding partner.

Assay [1] deals with aeBlue chromoprotein (Actinia equina). As to the kind of experiment: SEC.
For assay [2] the target is unchanged. Nature of the assay: SEC. This is another data set of the same source. Background: SEC sorts molecules by how far they enter the pores of the column.

As to aeBlue chromoprotein (natural protein), the stoichiometry N in assay [1] turned out to be 4.45 subunits; in assay [2], 3.84 subunits.
